Results from the supplement of paper PMC7877785.
± gives the uncertainty stated by the source.

Test: self-splicing fitness, log relative to wild type (ln ratio); higher = more splicing; Tetrahymena group I intron in knt gene, E. coli kanamycin selection, DiMSum; sequences stand for … in CUCUCU…GGAGGGAAAAGUUAUCAGGCAUGCACCUGGUAGCUAGUCUUUAAACCAAUAGAUUGCAUCGGUUUAAAAGGCAAGACCGUCAAAUUGCGGGAAAGGGGUCAACAGCCGUUCAGUACCAAGUCUCAGGGGAAACUUUGAGAUGGCCUUGCAAAGGGUAUGGUAAUAAGCUGACGGACAUGGUCCUAACCACGCAGCCAAGUCCUAAGUCAACAGAUCUUCUGUUGAUAUGGAUGCAGUUCACAGACUAAAUGUCGGUCGGGGAAGAUGUAUUCUUCUCAUAAGAUAUAGUCGGACCUCUCCUUAAUGGGAGCUAGCGGAUGAAGUGAUGCAACACUGGAGCCGCUGGGAACUAAUUUGUAUGCGAAAGUAUAUUGAUUAGUUUUGGAGUACUCGUGGUCG
Method in brief: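 DiMSum derived fitness as the error-weighted combination of fold changes across replicates, kanamycin versus no kanamycin, normalised to wild type. E. coli BL21(DE3) held the library, which randomised all eight P1ex-region intron nucleotides within the knt kanamycin-resistance gene on pET-22b(+). Six replicate transformations grew overnight at 37°C or 30°C on LB agar with or without 25 μg/mL kanamycin, also containing 100 μg/mL carbenicillin, 50 μM IPTG and 0.2% rhamnose, and pooled colonies were amplicon-sequenced on an Illumina HiSeq 2500.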

Row | Sequence | self-splicing fitness (ln) (30 °C) | self-splicing fitness (ln) (37 °C)
1 | GCCGAGCAAUAUUACGCAGC | -3.12 ± 0.29 | -2.22 ± 0.27
2 | CAGCAGCAAUAUUACGCAAG | -1.53 ± 0.092 | -0.332 ± 0.11
3 | CGCUAGCAAUAUUACGCAAU | -2.44 ± 0.3 | -2.09 ± 0.36
4 | GUUUAGCAAUAUUACGUGAG | -0.583 ± 0.062 | -0.124 ± 0.08
5 | GGAAAGCAAUAUUACGUUAU | -2.24 ± 0.09 | -1.16 ± 0.12
6 | AGGUAGCAAUAUUACGAAUG | -3.277 ± 0.026 | -1.83 ± 0.037
7 | CGUUAGCAAUAUUACGAAAG | -1.11 ± 0.13 | -0.689 ± 0.18
8 | CAUCAGCAAUAUUACGUCGU | -1.93 ± 0.097 | -1.19 ± 0.11
9 | GGUAAGCAAUAUUACGGGGA | – | -2.42 ± 0.33
10 | UGGGAGCAAUAUUACGGGGA | -2.94 ± 0.32 | -2.9 ± 0.29
11 | ACUGAGCAAUAUUACGACAU | -2.109 ± 0.015 | -1.12 ± 0.034
12 | UUGAAGCAAUAUUACGUGCG | -0.232 ± 0.063 | -0.131 ± 0.078
13 | ACAGAGCAAUAUUACGAGCU | -3.43 ± 0.18 | -2.22 ± 0.22
14 | GAAUAGCAAUAUUACGGAUC | -0.118 ± 0.058 | -0.207 ± 0.073
15 | CAACAGCAAUAUUACGCACC | -3.36 ± 0.34 | -0.879 ± 0.3
16 | ACACAGCAAUAUUACGCAAU | -3.32 ± 0.15 | -1.94 ± 0.15
17 | CCGCAGCAAUAUUACGUCCC | – | -2.65 ± 0.49
18 | GAGAAGCAAUAUUACGGUCU | -2.29 ± 0.13 | -1.16 ± 0.17
19 | GAGGAGCAAUAUUACGAGAC | -2.67 ± 0.22 | –
20 | GGGUAGCAAUAUUACGAUAU | -0.506 ± 0.11 | -0.0772 ± 0.12
21 | CUAUAGCAAUAUUACGGAUG | -0.942 ± 0.11 | -0.343 ± 0.11
22 | GUAAAGCAAUAUUACGCAUU | -1.76 ± 0.099 | -0.597 ± 0.11

Row | Sequence | self-splicing fitness (ln) (30 °C) | self-splicing fitness (ln) (37 °C)
23 | ACAGAGCAAUAUUACGACUU | -2.44 ± 0.16 | -1.52 ± 0.15
24 | UAUUAGCAAUAUUACGCGAA | -2.22 ± 0.29 | -0.951 ± 0.17
25 | UCGCAGCAAUAUUACGUCGU | -1.95 ± 0.081 | -0.965 ± 0.096
26 | GACGAGCAAUAUUACGACAU | -2.931 ± 0.021 | -1.99 ± 0.036
27 | GAGCAGCAAUAUUACGGAUA | -2.15 ± 0.22 | -2.11 ± 0.26
28 | UACUAGCAAUAUUACGCUUU | -2.09 ± 0.11 | -2.16 ± 0.17
29 | ACUGAGCAAUAUUACGUCUC | -3.61 ± 0.2 | -3.51 ± 0.33
30 | UGUGAGCAAUAUUACGAUUA | -1.17 ± 0.22 | -1.53 ± 0.2
31 | UAAUAGCAAUAUUACGCAGU | -3.55 ± 0.37 | -2.1 ± 0.34
32 | AGCCAGCAAUAUUACGCAGG | -3.44 ± 0.14 | -2.62 ± 0.18
33 | UACCAGCAAUAUUACGCACG | 0.061 ± 0.066 | -0.903 ± 0.066
34 | CGAUAGCAAUAUUACGUCUG | 0.295 ± 0.061 | 0.0438 ± 0.072
35 | AUCCAGCAAUAUUACGACCU | -1.86 ± 0.2 | 0.313 ± 0.18
36 | GCCGAGCAAUAUUACGCGAC | -2.44 ± 0.21 | -2.26 ± 0.35
37 | CGCGAGCAAUAUUACGUAAA | -3.8 ± 0.19 | -2.78 ± 0.15
38 | GAAUAGCAAUAUUACGGUCA | -0.00851 ± 0.072 | -0.154 ± 0.077
39 | AGGAAGCAAUAUUACGCAUC | – | -1.85 ± 0.41
40 | UACCAGCAAUAUUACGAAGC | -3.64 ± 0.25 | -2.17 ± 0.18
41 | UUUCAGCAAUAUUACGCUCG | 0.0268 ± 0.097 | 0.385 ± 0.15
42 | UCACAGCAAUAUUACGACCU | -2.97 ± 0.24 | -1.16 ± 0.19
43 | UCCAAGCAAUAUUACGGCUG | -2.69 ± 0.15 | -3.33 ± 0.22
